From US11306156

These substances were tested against tissue factor (TF) antigen (UniProt P13726) (assay: SPR (ProteOn), Fab captured on anti-penta-His, TF as analyte, 1:1 fit).
Chain of tissue factor (TF) antigen (P13726 33-251 limits assumed): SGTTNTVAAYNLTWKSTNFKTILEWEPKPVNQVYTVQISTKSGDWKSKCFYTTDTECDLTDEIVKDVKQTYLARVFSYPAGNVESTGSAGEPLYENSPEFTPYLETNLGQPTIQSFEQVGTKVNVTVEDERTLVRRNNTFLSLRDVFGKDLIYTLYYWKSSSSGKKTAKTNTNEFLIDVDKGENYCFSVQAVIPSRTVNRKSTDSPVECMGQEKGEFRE

In order of rising Change in KD with respect to wild type (-(log(KD design) - log(KD wt))):
1. D3H44 Fab heterodimer, H L143E_K145T_Q179E_S188L / L Q124R_T178R  -0.34
2. D3H44 Fab heterodimer, H Q179K / L Q124E_Q160E_T178E  -0.27
3. D3H44 Fab heterodimer, H L143R / L Q124E_V133E_S176L  -0.25
4. D3H44 Fab heterodimer, H L143K / L Q124E_V133D_S176L  -0.25
5. D3H44 Fab heterodimer, H L143A_Q179K / L Q124E_V133Y_T180E  -0.23
6. D3H44 Fab heterodimer, H L143K_D146G / L Q124E_V133D  -0.22
7. D3H44 Fab heterodimer, H L143R / L Q124E_V133E_Q160M  -0.21
8. D3H44 Fab heterodimer, H L143E_K145T_S188L / L Q124R_Q160K_T178R  -0.19
9. D3H44 Fab heterodimer, H L143R / L Q124E_V133E  -0.09
10. D3H44 Fab heterodimer, H Q179R / L Q124E_S176L_T180E  -0.02
11. D3H44 Fab heterodimer, H Q179K / L Q124E_S131T_T178Y_T180E  -0.01
12. D3H44 Fab heterodimer, H Q179R / L Q124E_T178E_T180E  -0.01
13. D3H44 Fab heterodimer, H S186K / L Q124E_T178E  0.01
14. D3H44 Fab heterodimer, H S186K / L Q124E_T178E_T180E  0.02
15. D3H44 Fab heterodimer, H L124A_S186K / L Q124E_V133W_T180E  0.02
16. D3H44 Fab heterodimer, H S186K / L Q124E_S176L_T180E  0.03
17. D3H44 Fab heterodimer, H Q179R / L Q124E_T178E  0.04
18. D3H44 Fab heterodimer, H S186K / L S131E  0.05
19. D3H44 Fab heterodimer, H Q179K / L S131E  0.05
20. D3H44 Fab heterodimer, H S186K / L Q124E_S131T_T178Y_T180E  0.09
21. D3H44 Fab heterodimer, H L124A_Q179K / L Q124E_V133W_T180E  0.1
22. D3H44 Fab heterodimer, H Q179K / L Q124E_S131T_T178F_T180E  0.13
23. D3H44 Fab heterodimer, H Q179R / L Q124E_S131T_T178F_T180E  0.14
24. D3H44 Fab heterodimer, H L143E_K145T / L Q124R_T178R  0.15
25. D3H44 Fab heterodimer, H Q179K / L Q124E_S176L_T180E  0.28
26. D3H44 Fab heterodimer, H S186R / L Q124E_T178E_T180E  0.49

In order of falling Kd:
1. D3H44 Fab heterodimer, H L143E_K145T_Q179E_S188L / L Q124R_T178R  0.34 nM
2. D3H44 Fab heterodimer, H Q179K / L Q124E_Q160E_T178E  0.29 nM
3. D3H44 Fab heterodimer, H L143R / L Q124E_V133E_S176L  0.28 nM
4. D3H44 Fab heterodimer, H L143K / L Q124E_V133D_S176L  0.28 nM
5. D3H44 Fab heterodimer, H L143A_Q179K / L Q124E_V133Y_T180E  0.27 nM
6. D3H44 Fab heterodimer, H L143R / L Q124E_V133E_Q160M  0.25 nM
7. D3H44 Fab heterodimer, H L143K_D146G / L Q124E_V133D  0.25 nM
8. D3H44 Fab heterodimer, H L143E_K145T_S188L / L Q124R_Q160K_T178R  0.24 nM
9. D3H44 Fab heterodimer, H L143R / L Q124E_V133E  0.2 nM
10. D3H44 Fab heterodimer, H Q179R / L Q124E_S176L_T180E  0.17 nM
11. D3H44 Fab heterodimer, H Q179K / L Q124E_S131T_T178Y_T180E  0.16 nM
12. D3H44 Fab heterodimer, H Q179R / L Q124E_T178E_T180E  0.16 nM
13. D3H44 Fab heterodimer, H S186K / L Q124E_T178E_T180E  0.15 nM
14. D3H44 Fab heterodimer, H S186K / L Q124E_T178E  0.15 nM
15. D3H44 Fab heterodimer, H S186K / L Q124E_S176L_T180E  0.15 nM
16. D3H44 Fab heterodimer, H L124A_S186K / L Q124E_V133W_T180E  0.15 nM
17. D3H44 Fab heterodimer, H Q179R / L Q124E_T178E  0.14 nM
18. D3H44 Fab heterodimer, H S186K / L S131E  0.14 nM
19. D3H44 Fab heterodimer, H Q179K / L S131E  0.14 nM
20. D3H44 Fab heterodimer, H S186K / L Q124E_S131T_T178Y_T180E  0.13 nM
21. D3H44 Fab heterodimer, H L124A_Q179K / L Q124E_V133W_T180E  0.12 nM
22. D3H44 Fab heterodimer, H Q179K / L Q124E_S131T_T178F_T180E  0.12 nM
23. D3H44 Fab heterodimer, H L143E_K145T / L Q124R_T178R  0.11 nM
24. D3H44 Fab heterodimer, H Q179R / L Q124E_S131T_T178F_T180E  0.11 nM
25. D3H44 Fab heterodimer, H Q179K / L Q124E_S176L_T180E  0.08 nM
26. D3H44 Fab heterodimer, H S186R / L Q124E_T178E_T180E  0.05 nM
